For assay [1], the target named is MtMce4A_(39–140) (Mycobacterium tuberculosis H37Rv). The assay is described as follows: crystal structure; native protein, 7.5 mg ml^−1; 100 mM sodium HEPES, 100 mM LiCl2, 20% PEG 400 pH 7.5, 22°C; space group P6_(5), 2.9 Å.
The target is the same in assay [2]. The assay is described as follows: SEC-MALS; in crystallization buffer (0.1 M MES, 0.7 M ammonium sulfate pH 6.0) after slow heating from 20 to 50°C (0.8°C per minute); supernatant on Superdex 200 10/300. A general note: In gel filtration, larger molecules generally elute earlier.

The stoichiometry N is the number of molecules, sites or subunits per partner or assembly.

Turning to MtMce4A_(39–140) (domain or fragment), the stoichiometry N in assay [1] and in assay [2] was 2 each time.

Source of the values: paper PMC8420772.
